Experimental data from patent US20250262210A1 (TRUSTEES OF COLUMBIA UNIVERSITY IN THE CITY OF NEW YORK, published 2025).
Positions count from the first letter of the chain named.

T1: LZTR1-FLAG (human, UniProt Q8N653 1-840)
T1 construct: Expressed in HEK 293T, HeLa or U87 cells; used as cell lysate; also called LZTR1 wild type-FLAG; LZTR1 WT; not shown: FLAG tag at the C-terminus
T1 sequence (looked up): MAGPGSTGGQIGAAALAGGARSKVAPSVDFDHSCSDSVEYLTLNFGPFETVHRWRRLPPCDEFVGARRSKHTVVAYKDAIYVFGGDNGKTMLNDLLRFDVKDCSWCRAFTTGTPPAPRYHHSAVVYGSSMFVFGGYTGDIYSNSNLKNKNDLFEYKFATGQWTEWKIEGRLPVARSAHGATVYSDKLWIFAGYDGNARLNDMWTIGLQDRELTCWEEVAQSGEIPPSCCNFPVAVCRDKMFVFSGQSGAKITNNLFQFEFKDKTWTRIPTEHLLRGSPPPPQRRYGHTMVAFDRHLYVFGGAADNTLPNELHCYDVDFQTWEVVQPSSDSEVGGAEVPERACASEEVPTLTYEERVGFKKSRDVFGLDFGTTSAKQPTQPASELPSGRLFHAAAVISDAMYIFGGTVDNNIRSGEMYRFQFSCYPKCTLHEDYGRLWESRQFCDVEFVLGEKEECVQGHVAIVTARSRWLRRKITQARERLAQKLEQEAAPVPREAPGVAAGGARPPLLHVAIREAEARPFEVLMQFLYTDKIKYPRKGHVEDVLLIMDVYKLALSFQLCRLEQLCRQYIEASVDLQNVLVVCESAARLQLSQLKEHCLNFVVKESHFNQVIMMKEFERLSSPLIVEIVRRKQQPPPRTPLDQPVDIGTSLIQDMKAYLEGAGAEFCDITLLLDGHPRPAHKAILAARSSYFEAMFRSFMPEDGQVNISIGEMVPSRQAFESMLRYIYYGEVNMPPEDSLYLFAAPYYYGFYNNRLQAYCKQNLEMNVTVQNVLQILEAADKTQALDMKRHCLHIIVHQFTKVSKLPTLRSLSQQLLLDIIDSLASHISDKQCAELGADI

T2: LZTR1 R810W-FLAG (human, UniProt Q8N653 1-840)
T2 construct: Stably expressed in U87 cells by lentivirus; also called LZTR1-FLAG-R810W; LZTR1 RW; not shown: FLAG tag
T2 sequence (looked up): T1 sequence (looked up) with R810W

B1: SMG9 (other, human, UniProt Q9H0W8 2-520, looked up)
chain: SESGHSQPGLYGIERRRRWKEPGSGGPQNLSGPGGRERDYIAPWERERRDASEETSTSVMQKTPIILSKPPAERSKQPPPPTAPAAPPAPAPLEKPIVLMKPREEGKGPVAVTGASTPEGTAPPPPAAPAPPKGEKEGQRPTQPVYQIQNRGMGTAAPAAMDPVVGQAKLLPPERMKHSIKLVDDQMNWCDSAIEYLLDQTDVLVVGVLGLQGTGKSMVMSLLSANTPEEDQRTYVFRAQSAEMKERGGNQTSGIDFFITQERIVFLDTQPILSPSILDHLINNDRKLPPEYNLPHTYVEMQSLQIAAFLFTVCHVVIVVQDWFTDLSLYRFLQTAEMVKPSTPSPSHESSSSSGSDEGTEYYPHLVFLQNKARREDFCPRKLRQMHLMIDQLMAHSHLRYKGTLSMLQCNVFPGLPPDFLDSEVNLFLVPFMDSEAESENPPRAGPGSSPLFSLLPGYRGHPSFQSLVSKLRSQVMSMARPQLSHTILTEKNWFHYAARIWDGVRKSSALAEYSRLLA
B2: SPRYD3 (other, human, UniProt Q8NCJ5 1-442, looked up)
chain: MRRTRRPRFVLMNKMDDLNLHYRFLNWRRRIREIREVRAFRYQERFKHILVDGDTLSYHGNSGEVGCYVASRPLTKDSNYFEVSIVDSGVRGTIAVGLVPQYYSLDHQPGWLPDSVAYHADDGKLYNGRAKGRQFGSKCNSGDRIGCGIEPVSFDVQTAQIFFTKNGKRVGSTIMPMSPDGLFPAVGMHSLGEEVRLHLNAELGREDDSVMMVDSYEDEWGRLHDVRVCGTLLEYLGKGKSIVDVGLAQARHPLSTRSHYFEVEIVDPGEKCYIALGLARKDYPKNRHPGWSRGSVAYHADDGKIFHGSGVGDPFGPRCYKGDIMGCGIMFPRDYILDSEGDSDDSCDTVILSPTARAVRNVRNVMYLHQEGEEEEEEEEEEEDGEEIEPEHEGRKVVVFFTRNGKIIGKKDAVVPSGGFFPTIGMLSCGEKVKVDLHPLSG
B3: SMS (other, human, UniProt P52788 2-366, looked up)
chain: AAARHSTLDFMLGAKADGETILKGLQSIFQEQGMAESVHTWQDHGYLATYTNKNGSFANLRIYPHGLVLLDLQSYDGDAQGKEEIDSILNKVEERMKELSQDSTGRVKRLPPIVRGGAIDRYWPTADGRLVEYDIDEVVYDEDSPYQNIKILHSKQFGNILILSGDVNLAESDLAYTRAIMGSGKEDYTGKDVLILGGGDGGILCEIVKLKPKMVTMVEIDQMVIDGCKKYMRKTCGDVLDNLKGDCYQVLIEDCIPVLKRYAKEGREFDYVINDLTAVPISTSPEEDSTWEFLRLILDLSMKVLKQDGKYFTQGNCVNLTEALSLYEEQLGRLYCPVEFSKEIVCVPSYLELWVFYTVWKKAKP
B4: SYDE1 (other, human, UniProt Q6ZW31 1-735, looked up)
chain: MAEPLLRKTFSRLRGREKLPRKKSDAKERGHPAQRPEPSPPEPEPQAPEGSQAGAEGPSSPEASRSPARGAYLQSLEPSSRRWVLGGAKPAEDTSLGPGVPGTGEPAGEIWYNPIPEEDPRPPAPEPPGPQPGSAESEGLAPQGAAPASPPTKASRTKSPGPARRLSIKMKKLPELRRRLSLRGPRAGRERERAAPAGSVISRYHLDSSVGGPGPAAGPGGTRSPRAGYLSDGDSPERPAGPPSPTSFRPYEVGPAARAPPAALWGRLSLHLYGLGGLRPAPGATPRDLCCLLQVDGEARARTGPLRGGPDFLRLDHTFHLELEAARLLRALVLAWDPGVRRHRPCAQGTVLLPTVFRGCQAQQLAVRLEPQGLLYAKLTLSEQQEAPATAEPRVFGLPLPLLVERERPPGQVPLIIQKCVGQIERRGLRVVGLYRLCGSAAVKKELRDAFERDSAAVCLSEDLYPDINVITGILKDYLRELPTPLITQPLYKVVLEAMARDPPNRVPPTTEGTRGLLSCLPDVERATLTLLLDHLRLVSSFHAYNRMTPQNLAVCFGPVLLPARQAPTRPRARSSGPGLASAVDFKHHIEVLHYLLQSWPDPRLPRQSPDVAPYLRPKRQPPLHLPLADPEVVTRPRGRGGPESPPSNRYAGDWSVCGRDFLPCGRDFLSGPDYDHVTGSDSEDEDEEVGEPRVTGDFEDDFDAPFNPHLNLKDFDALILDLERELSKQINVCL
B5: TELO2 (other, human, UniProt Q9Y4R8 1-837, looked up)
chain: MEPAPSEVRLAVREAIHALSSSEDGGHIFCTLESLKRYLGEMEPPALPREKEEFASAHFSPVLRCLASRLSPAWLELLPHGRLEELWASFFLEGPADQAFLVLMETIEGAAGPSFRLMKMARLLARFLREGRLAVLMEAQCRQQTQPGFILLRETLLGKVVALPDHLGNRLQQENLAEFFPQNYFRLLGEEVVRVLQAVVDSLQGGLDSSVSFVSQVLGKACVHGRQQEILGVLVPRLAALTQGSYLHQRVCWRLVEQVPDRAMEAVLTGLVEAALGPEVLSRLLGNLVVKNKKAQFVMTQKLLFLQSRLTTPMLQSLLGHLAMDSQRRPLLLQVLKELLETWGSSSAIRHTPLPQQRHVSKAVLICLAQLGEPELRDSRDELLASMMAGVKCRLDSSLPPVRRLGMIVAEVVSARIHPEGPPLKFQYEEDELSLELLALASPQPAGDGASEAGTSLVPATAEPPAETPAEIVDGGVPQAQLAGSDSDLDSDDEFVPYDMSGDRELKSSKAPAYVRDCVEALTTSEDIERWEAALRALEGLVYRSPTATREVSVELAKVLLHLEEKTCVVGFAGLRQRALVAVTVTDPAPVADYLTSQFYALNYSLRQRMDILDVLTLAAQELSRPGCLGRTPQPGSPSPNTPCLPEAAVSQPGSAVASDWRVVVEERIRSKTQRLSKGGPRQGPAGSPSRFNSVAGHFFFPLLQRFDRPLVTFDLLGEDQLVLGRLAHTLGALMCLAVNTTVAVAMGKALLEFVWALRFHIDAYVRQGLLSAVSSVLLSLPAARLLEDLMDELLEARSWLADVAEKDPDEDCRTLALRALLLLQRLKNRLLPPASP
B6: TBK1 (other, human, UniProt Q9UHD2 1-729, looked up)
chain: MQSTSNHLWLLSDILGQGATANVFRGRHKKTGDLFAIKVFNNISFLRPVDVQMREFEVLKKLNHKNIVKLFAIEEETTTRHKVLIMEFCPCGSLYTVLEEPSNAYGLPESEFLIVLRDVVGGMNHLRENGIVHRDIKPGNIMRVIGEDGQSVYKLTDFGAARELEDDEQFVSLYGTEEYLHPDMYERAVLRKDHQKKYGATVDLWSIGVTFYHAATGSLPFRPFEGPRRNKEVMYKIITGKPSGAISGVQKAENGPIDWSGDMPVSCSLSRGLQVLLTPVLANILEADQEKCWGFDQFFAETSDILHRMVIHVFSLQQMTAHKIYIHSYNTATIFHELVYKQTKIISSNQELIYEGRRLVLEPGRLAQHFPKTTEENPIFVVSREPLNTIGLIYEKISLPKVHPRYDLDGDASMAKAITGVVCYACRIASTLLLYQELMRKGIRWLIELIKDDYNETVHKKTEVVITLDFCIRNIEKTVKVYEKLMKINLEAAELGEISDIHTKLLRLSSSQGTIETSLQDIDSRLSPGGSLADAWAHQEGTHPKDRNVEKLQVLLNCMTEIYYQFKKDKAERRLAYNEEQIHKFDKQKLYYHATKAMTHFTDECVKKYEAFLNKSEEWIRKMLHLRKQLLSLTNQCFDIEEEVSKYQEYTNELQETLPQKMFTASSGIKHTMTPIYPSSNTLVEMTLGMKKLKEEMEGVVKELAENNHILERFGSLTMDGGLRNVDCL

molecular target: T1, LZTR1-FLAG; assay: IP/MS, LZTR1 wild type-FLAG, U87
Procedure, shortened: (§1)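 Read-out: spectral counts from LC-MS/MS (Orbitrap Fusion) after MaxQuant identification. Variable modifications were Met oxidation, protein N-terminal acetylation and N/Q deamidation.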

Binding result, binds:
B1, B2, B3, B4, B5, B6

molecular target: T2, LZTR1 R810W-FLAG; assay: IP/MS, LZTR1 R810W-FLAG, U87
Procedure, shortened: as §1

Binding result, binds:
B1, B2, B3, B4, B5, B6
